Data as given in article doi:10.1101/2025.02.18.638932, “CHIP protects lysosomes from CLN4 mutant-induced membrane damages” (bioRxiv, 2025).

Biological target: the molecule itself
Assay: immunoblotting of SDS-resistant high molecular weight species; purified DNAJC5 protein incubated with buffer or calf liver cytosol with or without ATP at 37 °C for 30 min, then immunoblotting

B1: recombinant human DNAJC5 L116Δ (natural protein, UniProt Q9H3Z4 1-198, looked up)
chain: MADQRQRSLSTSGESLYHVLGLDKNATSDDIKKSYRKLALKYHPDKNPDNPEAADKFKEINNAHAILTDATKRNIYDKYGSLGLYVAEQFGEENVNTYFVLSSWWAKALFVFCGLTCCYCCCCLCCCFNCCCGKCKPKAPEGEETEFYVSPEDLEAQLQSDEREATDTPIVIQPASATETTQLTADSHPSYHTDGFN
notes: DNAJC5, human, CLN4 disease mutant L116Δ (p.L116del, c.346-348del); A TEV cleavage site lies between the GST tag and the protein; also called hDNAJC5 L116Δ; purified L116Δ mutant; source: E. coli BL21(DE3), purified (Glutathione Sepharose, eluted by TEV protease)
Does B1 bind?
Result: binds
